According to patent US20250262210A1 (TRUSTEES OF COLUMBIA UNIVERSITY IN THE CITY OF NEW YORK, published 2025):
Numbering of substitutions follows the chain as printed. Each block holds one binder with its values, some of them ahead of it.

Assays:
LZTR1-FLAG = biological target: T1, LZTR1-FLAG (human, UniProt Q8N653 1-840); assay: IP/MS, LZTR1 wild type-FLAG, U87
T1 construct: Expressed in HEK 293T, HeLa or U87 cells; used as cell lysate; also called LZTR1 wild type-FLAG; LZTR1 WT; not shown: FLAG tag at the C-terminus
T1 sequence (looked up): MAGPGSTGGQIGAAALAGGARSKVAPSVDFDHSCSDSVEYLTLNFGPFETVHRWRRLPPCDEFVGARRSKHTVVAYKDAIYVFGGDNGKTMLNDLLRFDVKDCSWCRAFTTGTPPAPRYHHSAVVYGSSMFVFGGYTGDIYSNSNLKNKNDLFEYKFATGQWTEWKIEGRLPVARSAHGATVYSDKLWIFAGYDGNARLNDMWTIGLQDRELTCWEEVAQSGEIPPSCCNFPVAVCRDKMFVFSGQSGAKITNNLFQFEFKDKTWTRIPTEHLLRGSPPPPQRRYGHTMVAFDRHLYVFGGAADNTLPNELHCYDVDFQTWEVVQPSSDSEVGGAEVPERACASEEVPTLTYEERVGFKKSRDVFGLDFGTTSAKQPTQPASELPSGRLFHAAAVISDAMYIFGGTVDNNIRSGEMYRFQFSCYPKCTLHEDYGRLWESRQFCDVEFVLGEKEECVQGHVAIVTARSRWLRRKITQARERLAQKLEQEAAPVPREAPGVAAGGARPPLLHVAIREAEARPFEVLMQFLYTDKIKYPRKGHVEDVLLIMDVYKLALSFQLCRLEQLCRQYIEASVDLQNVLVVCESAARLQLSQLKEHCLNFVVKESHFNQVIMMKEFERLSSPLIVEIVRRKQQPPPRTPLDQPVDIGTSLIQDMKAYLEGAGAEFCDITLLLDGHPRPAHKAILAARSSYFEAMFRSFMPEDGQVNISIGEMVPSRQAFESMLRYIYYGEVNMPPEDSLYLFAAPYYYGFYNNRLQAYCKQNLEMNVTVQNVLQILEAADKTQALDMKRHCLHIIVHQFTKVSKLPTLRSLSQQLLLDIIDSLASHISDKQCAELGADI
Procedure, shortened: (§1)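 Gel slices were reduced with 5 mM DTT, alkylated with 11 mM IAA and digested overnight at 37° C. with trypsin. Peptides were analysed on an Orbitrap Fusion Tribrid by LC-MS/MS.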

LZTR1 R810W-FLAG = biological target: T2, LZTR1 R810W-FLAG (human, UniProt Q8N653 1-840); assay: IP/MS, LZTR1 R810W-FLAG, U87
T2 construct: Stably expressed in U87 cells by lentivirus; also called LZTR1-FLAG-R810W; LZTR1 RW; not shown: FLAG tag
T2 sequence (looked up): T1 sequence (looked up) with R810W
Procedure, shortened: as §1

binding result (LZTR1-FLAG): binds
binding result (LZTR1 R810W-FLAG): binds
B1: YME1L1 (other, human, UniProt Q96TA2 1-773, looked up)
chain: MFSLSSTVQPQVTVPLSHLINAFHTPKNTSVSLSGVSVSQNQHRDVVPEHEAPSSECMFSDFLTKLNIVSIGKGKIFEGYRSMFMEPAKRMKKSLDTTDNWHIRPEPFSLSIPPSLNLRDLGLSELKIGQIDQLVENLLPGFCKGKNISSHWHTSHVSAQSFFENKYGNLDIFSTLRSSCLYRHHSRALQSICSDLQYWPVFIQSRGFKTLKSRTRRLQSTSERLAETQNIAPSFVKGFLLRDRGSDVESLDKLMKTKNIPEAHQDAFKTGFAEGFLKAQALTQKTNDSLRRTRLILFVLLLFGIYGLLKNPFLSVRFRTTTGLDSAVDPVQMKNVTFEHVKGVEEAKQELQEVVEFLKNPQKFTILGGKLPKGILLVGPPGTGKTLLARAVAGEADVPFYYASGSEFDEMFVGVGASRIRNLFREAKANAPCVIFIDELDSVGGKRIESPMHPYSRQTINQLLAEMDGFKPNEGVIIIGATNFPEALDNALIRPGRFDMQVTVPRPDVKGRTEILKWYLNKIKFDQSVDPEIIARGTVGFSGAELENLVNQAALKAAVDGKEMVTMKELEFSKDKILMGPERRSVEIDNKNKTITAYHESGHAIIAYYTKDAMPINKATIMPRGPTLGHVSLLPENDRWNETRAQLLAQMDVSMGGRVAEELIFGTDHITTGASSDFDNATKIAKRMVTKFGMSEKLGVMTYSDTGKLSPETQSAIEQEIRILLRDSYERAKHILKTHAKEHKNLAEALLTYETLDAKEIQIVLEGKKLEVR

binding result (LZTR1-FLAG): binds
binding result (LZTR1 R810W-FLAG): binds
B2: ZC3HC1 (other, human, UniProt Q86WB0 2-502, looked up)
chain: AAPCEGQAFAVGVEKNWGAVVRSPEGTPQKIRQLIDEGIAPEEGGVDAKDTSATSQSVNGSPQAEQPSLESTSKEAFFSRVETFSSLKWAGKPFELSPLVCAKYGWVTVECDMLKCSSCQAFLCASLQPAFDFDRYKQRCAELKKALCTAHEKFCFWPDSPSPDRFGMLPLDEPAILVSEFLDRFQSLCHLDLQLPSLRPEDLKTMCLTEDKISLLLHLLEDELDHRTDERKTTIKLGSDIQVHVTACILSVCGWACSSSLESMQLSLITCSQCMRKVGLWGFQQIESSMTDLDASFGLTSSPIPGLEGRPERLPLVPESPRRMMTRSQDATFSPGSEQAEKSPGPIVSRTRSWDSSSPVDRPEPEAASPTTRTRPVTRSMGTGDTPGLEVPSSPLRKAKRARLCSSSSSDTSSRSFFDPTSQHRDWCPWVNITLGKESRENGGTEPDASAPAEPGWKAVLTILLAHKQSSQPAETDSMSLSEKSRKVFRIFRQWESLCSC
